Target: KSS-1::Strep (C. tropicalis)
Experiment: SEC-MALS

SKR-1 (untagged) (natural protein)
stoichiometry N: 1
